The target of assay [1] is T1, 4-kDa GST-cath-D pro-fragment (UniProt P07339 21-64, limits assumed).
T1 construct: domain: 4-kDa pro-fragment; Produced in E. coli BL21
T1 chain (looked up): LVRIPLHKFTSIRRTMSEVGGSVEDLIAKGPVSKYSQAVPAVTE
Briefly: immunoprecipitation of GST-cath-D fusion fragments.

Assay [2] deals with T2, 14-kDa light chain GSTcath-D (UniProt P07339 65-162, limits assumed).
T2 construct: domain: 14-kDa light chain; Produced in E. coli BL21
Nature of the assay: immunoprecipitation of GST-cath-D fusion fragments.

In assay [3] the target is T3, human 52-kDa pro-cath-D secreted from MDA-MB-231 cells (human, UniProt P07339 21-412).
T3 construct: domain: 52-kDa pro-cath-D; Captured from conditioned medium by the M2E8 antibody in the sandwich ELISA; also called secreted human 52-kDa pro-cath-D
Nature of the assay: sandwich ELISA: M2E8 capture of pro-cath-D from MDA-MB-231 conditioned medium, serial dilutions of IgG, anti-human Fc-HRP. How it is done:
Cells were cultured in DMEM with 10% fetal calf serum (FCS, GibcoBRL). To produce conditioned medium, cells were grown to 90% confluence in DMEM medium with 10% FCS, and conditioned medium was centrifuged at 800×g for 10 min. For sandwich ELISA, 96-well plates were coated with M2E8 antibody in PBS (500 ng/well) at 4° C. overnight. After blocking non-specific sites with PBST/1% BSA, conditioned medium was added at 4° C. for 2 h. […] Cath-D was quantified in TNBC cytosols by sandwich ELISA, as described above, after coating with the D7E3 antibody in PBS (200 ng/well) and with the M1G8 antibody conjugated to HRP (1/80), and using recombinant pro-cath-D (1.25-15 ng/ml) for reference (6). TNBC cytosols were previously prepared and frozen (25). GST-cath-D fusion proteins were produced in the E. coli B strain BL21 as described (9).

T2 sequence (P07339 65-162 limits assumed): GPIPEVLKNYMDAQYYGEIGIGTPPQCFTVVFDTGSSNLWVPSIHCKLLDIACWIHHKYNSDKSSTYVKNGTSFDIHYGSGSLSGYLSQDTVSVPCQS

B1: anti-cath-D antibody E2 (fully human IgG1λ) (antibody, V domains shown)
VH: EVQLVESGGSLVKPGGSLRLSCAASGFTFSNSYMNWVRQAPGKGLEWISYISGSSRYISYADFVKGRFTISRDNATNSLYLQMNSLRAEDTAVYYCVRSSNSYFGGGMDVWGRGTLVTVSS
VL: QSVLTQPASVSGSPGQSITISCAGTSSDVGGSYGVSWYQQHPGKAPKLMIYGDSYRPSGVSNRFSGSKSGNTASLTISGLQAEDEADYYCSSYTNYSTRVFGGGTKLAVL
As a reminder, the EC50 is the concentration giving half of the maximal effect. Low values mean higher potency in that assay, high ones lower potency in that assay. As for B1, the binding result in assay [1] and in assay [2] was “no binding” each time. For the same molecule, the midpoint of the response in assay [3], the EC50, lay at 1.2 nM.

The values above are taken from US20220064332A1 (INSERM INSTITUT NATIONAL DE LA SANT ET DE LA RECHERCHE M …, published 2022).
